± gives the uncertainty stated by the source.
Experiment: self-splicing fitness, log relative to wild type (ln ratio); higher = more splicing; Tetrahymena group I intron in knt gene, E. coli kanamycin selection, DiMSum; sequences stand for … in CUCUCU…GGAGGGAAAAGUUAUCAGGCAUGCACCUGGUAGCUAGUCUUUAAACCAAUAGAUUGCAUCGGUUUAAAAGGCAAGACCGUCAAAUUGCGGGAAAGGGGUCAACAGCCGUUCAGUACCAAGUCUCAGGGGAAACUUUGAGAUGGCCUUGCAAAGGGUAUGGUAAUAAGCUGACGGACAUGGUCCUAACCACGCAGCCAAGUCCUAAGUCAACAGAUCUUCUGUUGAUAUGGAUGCAGUUCACAGACUAAAUGUCGGUCGGGGAAGAUGUAUUCUUCUCAUAAGAUAUAGUCGGACCUCUCCUUAAUGGGAGCUAGCGGAUGAAGUGAUGCAACACUGGAGCCGCUGGGAACUAAUUUGUAUGCGAAAGUAUAUUGAUUAGUUUUGGAGUACUCGUGGUCG
Procedure, shortened: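 DiMSum derived fitness as the error-weighted combination of fold changes across replicates, kanamycin versus no kanamycin, normalised to wild type. E. coli BL21(DE3) held the library, which randomised all eight P1ex-region intron nucleotides within the knt kanamycin-resistance gene on pET-22b(+). Six replicate transformations grew overnight at 37°C or 30°C on LB agar with or without 25 μg/mL kanamycin, also containing 100 μg/mL carbenicillin, 50 μM IPTG and 0.2% rhamnose, and pooled colonies were amplicon-sequenced on an Illumina HiSeq 2500.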

Row | Sequence | self-splicing fitness (ln) (30 °C) | self-splicing fitness (ln) (37 °C)
1 | AACUAGCAAUAUUACGUGCG | -0.832 ± 0.067 | -0.0538 ± 0.078
2 | UUUUAGCAAUAUUACGUCGU | -3.49 ± 0.15 | -2.81 ± 0.17
3 | GGACAGCAAUAUUACGUAAU | -0.0161 ± 0.056 | -0.0127 ± 0.07
4 | UUGCAGCAAUAUUACGUGAG | -0.139 ± 0.078 | -0.302 ± 0.099
5 | CAAGAGCAAUAUUACGAGAU | -3.29 ± 0.29 | -2.8 ± 0.28
6 | ACUAAGCAAUAUUACGACCU | -0.123 ± 0.081 | 0.342 ± 0.1
7 | GGUCAGCAAUAUUACGGCUG | -0.728 ± 0.078 | -0.439 ± 0.091
8 | AAUGAGCAAUAUUACGGAAC | -3.52 ± 0.47 | –
9 | CCUAAGCAAUAUUACGGUCC | – | -2.28 ± 0.45
10 | ACUAAGCAAUAUUACGGUUU | -2.05 ± 0.091 | -0.745 ± 0.096
11 | AAAUAGCAAUAUUACGGCGC | -1.11 ± 0.15 | -0.73 ± 0.15
12 | UCUUAGCAAUAUUACGACCA | -1.32 ± 0.48 | –
13 | GUUGAGCAAUAUUACGCCGG | – | 0.442 ± 0.29
14 | AGCAAGCAAUAUUACGAUGG | -2.63 ± 0.15 | -2.01 ± 0.2
15 | AGAAAGCAAUAUUACGAUCU | -2.88 ± 0.11 | -0.99 ± 0.11
16 | UACAAGCAAUAUUACGCUUC | -4.25 ± 0.42 | -3.02 ± 0.25
17 | UCCUAGCAAUAUUACGAGUC | -2.71 ± 0.31 | –
18 | GUUCAGCAAUAUUACGGUGU | -0.503 ± 0.05 | 0.262 ± 0.075
19 | UCGCAGCAAUAUUACGGGCG | -2.7 ± 0.13 | -0.856 ± 0.12
20 | GCCCAGCAAUAUUACGUGGC | -3.51 ± 0.22 | -1.39 ± 0.19
21 | AGUCAGCAAUAUUACGACAU | 0.0908 ± 0.012 | -0.0465 ± 0.032
22 | UGGUAGCAAUAUUACGGCCA | -2.07 ± 0.3 | -1.94 ± 0.45
23 | UCGCAGCAAUAUUACGCUAU | -5.08 ± 0.36 | -3 ± 0.17
24 | GAACAGCAAUAUUACGUAUU | -1.57 ± 0.063 | -0.99 ± 0.075
25 | GACCAGCAAUAUUACGCUUU | -0.00419 ± 0.078 | -0.213 ± 0.1
26 | ACGCAGCAAUAUUACGUUGA | -1.43 ± 0.11 | -1.73 ± 0.11

Row | Sequence | self-splicing fitness (ln) (30 °C) | self-splicing fitness (ln) (37 °C)
27 | AAGAAGCAAUAUUACGAGCA | -1.21 ± 0.12 | -0.225 ± 0.1
28 | UACGAGCAAUAUUACGCACU | -2.42 ± 0.29 | -2.13 ± 0.28
29 | CGCCAGCAAUAUUACGGUUA | -0.708 ± 0.055 | 0.0109 ± 0.058
30 | ACCGAGCAAUAUUACGUACU | -2.31 ± 0.13 | -0.966 ± 0.14
31 | GAAGAGCAAUAUUACGCGAC | -3.8 ± 0.36 | -1.18 ± 0.18
32 | CCAAAGCAAUAUUACGAUUC | -3 ± 0.31 | -1.71 ± 0.34
33 | AAUGAGCAAUAUUACGUGGA | -3.35 ± 0.32 | -3.04 ± 0.35
34 | CAAGAGCAAUAUUACGUUUC | -3.38 ± 0.24 | -2.01 ± 0.26
35 | CUGUAGCAAUAUUACGUGGG | -3.78 ± 0.22 | -2.05 ± 0.18
36 | GGCAAGCAAUAUUACGAAUA | -1.45 ± 0.079 | -0.797 ± 0.083
37 | GUUUAGCAAUAUUACGACGU | -0.531 ± 0.1 | 0.347 ± 0.14
38 | GUAGAGCAAUAUUACGACUA | -0.724 ± 0.071 | 0.693 ± 0.11
39 | CCCGAGCAAUAUUACGUUAU | -3.87 ± 0.21 | -2.62 ± 0.19
40 | UAUCAGCAAUAUUACGGGUG | -0.736 ± 0.044 | -0.102 ± 0.064
41 | UCCUAGCAAUAUUACGAGAA | -1.36 ± 0.25 | -0.965 ± 0.23
42 | GCUUAGCAAUAUUACGCUGU | -2.25 ± 0.18 | -1.25 ± 0.18
43 | GUGUAGCAAUAUUACGACAU | -2.608 ± 0.022 | -1.52 ± 0.037
44 | CCAUAGCAAUAUUACGUCCU | -2.86 ± 0.23 | -2.64 ± 0.48
45 | AAAUAGCAAUAUUACGGUUG | -1.88 ± 0.094 | -1.33 ± 0.12
46 | UCCCAGCAAUAUUACGAUGG | -3.71 ± 0.13 | -2.31 ± 0.15
47 | UACGAGCAAUAUUACGGUCU | -4.06 ± 0.34 | -3.1 ± 0.4
48 | UGCAAGCAAUAUUACGGGGC | -3.59 ± 0.27 | -2.56 ± 0.24
49 | CGCUAGCAAUAUUACGCAAC | – | -1.61 ± 0.49
50 | CAAAAGCAAUAUUACGGCCG | 0.257 ± 0.11 | 0.574 ± 0.16
51 | CUCCAGCAAUAUUACGUAUG | -2.03 ± 0.077 | -1.8 ± 0.087
52 | AUUAAGCAAUAUUACGUUCG | -0.91 ± 0.1 | -0.85 ± 0.14

Row | Sequence | self-splicing fitness (ln) (30 °C) | self-splicing fitness (ln) (37 °C)
53 | UUCAAGCAAUAUUACGGUUU | -3.08 ± 0.21 | -1.84 ± 0.17
54 | GCACAGCAAUAUUACGGCGC | -1.54 ± 0.1 | -0.777 ± 0.12
55 | AACCAGCAAUAUUACGUAGC | -2.7 ± 0.089 | -2.17 ± 0.11
56 | CGGUAGCAAUAUUACGAACG | -1.54 ± 0.13 | -1.29 ± 0.14
57 | CUGCAGCAAUAUUACGCGUC | -3.98 ± 0.35 | -2.05 ± 0.32
58 | AAAUAGCAAUAUUACGCUUC | -3.19 ± 0.3 | -2.99 ± 0.3
59 | GAAGAGCAAUAUUACGGCGC | -1.12 ± 0.16 | -0.427 ± 0.16
60 | UCCCAGCAAUAUUACGGUAA | 0.0812 ± 0.099 | 0.262 ± 0.1
61 | UCUCAGCAAUAUUACGCGUA | -1.04 ± 0.1 | -0.966 ± 0.1
62 | CACCAGCAAUAUUACGCUAA | -2.78 ± 0.13 | -2.33 ± 0.16
63 | GAUCAGCAAUAUUACGAGAC | -3.07 ± 0.44 | -1.86 ± 0.13
64 | CCGGAGCAAUAUUACGGUAA | -2.12 ± 0.25 | -3.21 ± 0.4
65 | UGCGAGCAAUAUUACGUUCU | -1.68 ± 0.12 | -2.05 ± 0.14
66 | AUUAAGCAAUAUUACGGCCG | -0.768 ± 0.12 | 0.0891 ± 0.15
67 | GGUAAGCAAUAUUACGACUU | -0.311 ± 0.15 | 0.0617 ± 0.18
68 | GGAGAGCAAUAUUACGCUUG | -3.1 ± 0.16 | -2.01 ± 0.21
69 | AUAGAGCAAUAUUACGAUGC | – | -1.36 ± 0.32
70 | CGUUAGCAAUAUUACGCGGG | -3.91 ± 0.24 | -3.13 ± 0.29
71 | UCUGAGCAAUAUUACGGCGC | -3.06 ± 0.29 | -2.02 ± 0.32
72 | GCCGAGCAAUAUUACGCUCG | -2.94 ± 0.27 | -2.02 ± 0.26
73 | GCCUAGCAAUAUUACGUUAU | -1.52 ± 0.12 | -0.39 ± 0.14
74 | UAUCAGCAAUAUUACGAUCC | -1.32 ± 0.11 | 0.203 ± 0.13
75 | UAGUAGCAAUAUUACGCCUA | -0.556 ± 0.14 | -0.575 ± 0.14
76 | ACCCAGCAAUAUUACGCGAG | -1.63 ± 0.078 | -0.948 ± 0.1
77 | CAGAAGCAAUAUUACGACUG | -3.23 ± 0.21 | -2.48 ± 0.19

Source: the supplement of paper PMC7877785
